# According to US20240092924A1 (RIKEN, published 2024):
# “And” between values parts separate entries of the source, which are not always exact repeats. Equal entries are not always repeated.
# B1: Recombinant N6HB426 human chimeric IgG4 antibody (antibody)
# heavy: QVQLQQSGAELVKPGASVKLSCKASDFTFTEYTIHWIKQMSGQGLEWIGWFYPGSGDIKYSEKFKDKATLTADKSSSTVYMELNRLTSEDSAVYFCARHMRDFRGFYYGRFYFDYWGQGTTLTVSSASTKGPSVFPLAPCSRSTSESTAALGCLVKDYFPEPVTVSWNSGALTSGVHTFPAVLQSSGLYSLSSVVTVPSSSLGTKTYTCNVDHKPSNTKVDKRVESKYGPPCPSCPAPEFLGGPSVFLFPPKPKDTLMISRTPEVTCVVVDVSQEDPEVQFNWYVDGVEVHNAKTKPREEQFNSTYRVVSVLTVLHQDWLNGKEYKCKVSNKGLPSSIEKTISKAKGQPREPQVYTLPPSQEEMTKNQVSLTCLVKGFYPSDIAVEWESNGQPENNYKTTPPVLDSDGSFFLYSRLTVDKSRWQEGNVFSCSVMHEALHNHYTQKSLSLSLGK
# light: EIVLTQSPAIMSASPGEKVTITCRASSSVSSSYLHWYQQKSGVSPKLWIYSTSNLASGVPARFSGSGSGTSYSLTINSVEAEDAATYYCQQYSGYRWTFGGGTTLEIKRTVAAPSVFIFPPSDEQLKSGTASVVCLLNNFYPREAKVQWKVDNALQSGNSQESVTEQDSKDSTYSLSSTLTLSKADYEKHKVYACEVTHQGLSSPVTKSFNRGEC
# notes: also called Recombinant N6HB426 human chimera IgG4 antibody; human chimeric antibody
# B2: Recombinant N6HB426 mouse IgG2a antibody (antibody)
# heavy: QVQLQQSGAELVKPGASVKLSCKASDFTFTEYTIHWIKQMSGQGLEWIGWFYPGSGDIKYSEKFKDKATLTADKSSSTVYMELNRLTSEDSAVYFCARHMRDFRGFYYGRFYFDYWGQGTTLTVSSAKTTAPSVYPLAPVCGGTTGSSVTLGCLVKGYFPEPVTLTWNSGSLSSGVHTFPALLQSGLYTLSSSVTVTSNTWPSQTITCNVAHPASSTKVDKKIEPRGPTIKPCPPCKCPAPNLLGGPSVFIFPPKIKDVLMISLSPIVTCVVVDVSEDDPDVQISWFVNNVEVHTAQTQTHREDYNSTLRVVSALPIQHQDWMSGKEFKCKVNNKDLPAPIERTISKPKGSVRAPQVYVLPPPEEEMTKKQVTLTCMVTDFMPEDIYVEWTNNGKTELNYKNTEPVLDSDGSYFMYSKLRVEKKNWVERNSYSCSVVHEGLHNHHTTKSFSRTPGK
# light: EIVLTQSPAIMSASPGEKVTITCRASSSVSSSYLHWYQQKSGVSPKLWIYSTSNLASGVPARFSGSGSGTSYSLTINSVEAEDAATYYCQQYSGYRWTFGGGTTLEIKRADAAPTVSIFPPSSEQLTSGGASVVCFLNNFYPKDINVKWKIDGSERQNGVLNSWTDQDSKDSTYSMSSTLTLTKDEYERHNSYTCEATHKTSTSPIVKSFNRNEC
# notes: this is left out as a signal peptide; also called Recombinant mouse IgG2a antibody; N6HB426-20-IgG2a antibody
# B3: N6HB426-20 antibody (antibody produced by hybridoma) (antibody, V domains shown)
# VH: QVQLQQSGAELVKPGASVKLSCKASDFTFTEYTIHWIKQMSGQGLEWIGWFYPGSGDIKYSEKFKDKATLTADKSSSTVYMELNRLTSEDSAVYFCARHMRDFRGFYYGRFYFDYWGQGTTLTVSS
# VL: EIVLTQSPAIMSASPGEKVTITCRASSSVSSSYLHWYQQKSGVSPKLWIYSTSNLASGVPARFSGSGSGTSYSLTINSVEAEDAATYYCQQYSGYRWTFGGGTTLEIKRA
# notes: Mouse IgG purified from the hybridoma supernatant on Protein G; also called N6HB426-20 monoclonal antibody; N6HB426 antibody
# Legend:
# [1] = target: T1, epitope region-containing peptide fragment (AFPPEVIGPLFFFPLLYMIFQLGEG-biotin) (C-terminal biotin); experiment: SPR (BIAcore 2000, 25 C); antibody captured via anti-human IgG on CM5, peptide as analyte; 1:1 Langmuir fit
# T1 peptide: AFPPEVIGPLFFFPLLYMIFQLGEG
# Method: (§1) In short, a carboxymethylated dextran biosensor chip (CM5, BIAcore Inc.) was activated by N-ethyl-N′-(3-dimethylaminopropyl)-carbodiimide hydrochloride (EDC) and N-hydroxysuccinimide (NHS) in accordance with the provider's instruction. An anti-mouse IgG antibody was diluted with 10 mM sodium acetate (pH5.2) up to 30 μg/ml. The dilution was injected at a flow rate of 5 to 10 μl/minute such that the reaction unit (RU) of the protein bound became 9,000 to 14,000 RU. […] The diluted antibody was injected at a flow rate of 5 to 10 μl/minute such that the reaction unit (RU) of the protein bound became 9,000 to 14,000 RU. After injection of each of the anti IgG antibodies, 1 M ethanolamine was injected in order to block unreactive groups. […] To the chip, a solution of an epitope region-containing peptide fragment diluted with the running buffers at different concentrations was added at 25° C. at a flow rate of 10 μl/minute for 2 minutes.
# (§2) Using simple one-to-one Langmuir binding model (BIAcore Evaluation software version 3.1) by fitting sensor grams of antigen-antibody association and dissociation at the same time, association rate (Ka) and dissociation rate (Kd) were calculated. A Kd/Ka ratio was calculated to obtain an equilibrium dissociation constant (KD).
# [2] = target: T2, wild-type human sodium taurocholate cotransporting polypeptide (human NTCP) (human, UniProt Q14973 1-349); experiment: cell-based or functional assay
# T2 sequence: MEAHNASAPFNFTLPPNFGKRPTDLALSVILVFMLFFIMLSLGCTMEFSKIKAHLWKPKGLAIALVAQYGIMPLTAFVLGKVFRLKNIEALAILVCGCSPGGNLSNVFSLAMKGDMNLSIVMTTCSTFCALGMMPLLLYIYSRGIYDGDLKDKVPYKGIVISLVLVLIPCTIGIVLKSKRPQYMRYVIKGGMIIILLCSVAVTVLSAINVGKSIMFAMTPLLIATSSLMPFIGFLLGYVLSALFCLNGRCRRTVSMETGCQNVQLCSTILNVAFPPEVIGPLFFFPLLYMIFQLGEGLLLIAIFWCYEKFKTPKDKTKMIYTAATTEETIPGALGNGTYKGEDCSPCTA
# [3] = target: T1, epitope region-containing peptide …; experiment: SPR (BIAcore 2000, 25 C); antibody captured via anti-mouse IgG on CM5, peptide as analyte; 1:1 Langmuir fit
# Method: as §1, §2
binder,measurement,setting,value
B1,Kd,[1],129 pM
same,koff,[1],1.73e-07 s⁻¹
same,kon,[1],1340 M⁻¹ s⁻¹
same,"IC50, inhibition of HBV/NL pseudo-virus infection of HepG2-human NTCP cells",[2],1.7 µg/mL
B2,Kd,[3],313 pM
same,koff,[3],2.39e-07 s⁻¹
same,kon,[3],762 M⁻¹ s⁻¹
B3,"IC50, inhibition of HBV/NL pseudo-virus infection of HepG2-human NTCP cells",[2],1.7 µg/mL
same,"IC50, inhibition of infection with pseudo-HBV (NanoLuc)",[2],0.27 µg/mL and 1.8 nM
same,"IC50, inhibition of live HBV infection of HepG2/NTCP-myc (HBs antigen level)",[2],20000 to 30000 pM
same,Kd,[3],38.8 pM
same,koff,[3],3.19e-08 s⁻¹
same,kon,[3],821 M⁻¹ s⁻¹
